Reference: doi:10.1101/2025.08.03.668247, “The structure of Egalitarian in complex with the K10 mRNA localization signal reveals a modular binding surface required for function”

Experiments:
Assay in all cases: fluorescence anisotropy; FA: 20 mM HEPES-NaOH pH 7.5, 100 mM NaCl, 10% glycerol, 20 C, 10 nM FAM-RNA; competition: 150 nM Egl512-819 + 10 nM FAM-K10 TLS, same buffer
Conditions in all cases: protein: recombinant; tags: N-terminal GST; label: 5'-6-FAM; hairpin with two bulges
[1] = molecular target: T1, R753A/K754A/K755A (Drosophila melanogaster, UniProt Q9W1K4 512-819, R753A;K754A;K755A)
T1 sequence: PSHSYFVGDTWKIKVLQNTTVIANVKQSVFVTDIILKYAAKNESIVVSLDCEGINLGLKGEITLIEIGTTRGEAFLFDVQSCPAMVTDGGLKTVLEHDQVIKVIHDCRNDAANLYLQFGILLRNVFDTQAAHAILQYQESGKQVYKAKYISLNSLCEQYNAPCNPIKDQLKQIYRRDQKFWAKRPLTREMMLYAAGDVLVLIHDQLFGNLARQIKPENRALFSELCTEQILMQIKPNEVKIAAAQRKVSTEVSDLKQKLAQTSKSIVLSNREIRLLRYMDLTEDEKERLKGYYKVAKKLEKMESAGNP

[2] = molecular target: T2, K751A (Drosophila melanogaster, UniProt Q9W1K4 512-819, K751A)
T2 sequence: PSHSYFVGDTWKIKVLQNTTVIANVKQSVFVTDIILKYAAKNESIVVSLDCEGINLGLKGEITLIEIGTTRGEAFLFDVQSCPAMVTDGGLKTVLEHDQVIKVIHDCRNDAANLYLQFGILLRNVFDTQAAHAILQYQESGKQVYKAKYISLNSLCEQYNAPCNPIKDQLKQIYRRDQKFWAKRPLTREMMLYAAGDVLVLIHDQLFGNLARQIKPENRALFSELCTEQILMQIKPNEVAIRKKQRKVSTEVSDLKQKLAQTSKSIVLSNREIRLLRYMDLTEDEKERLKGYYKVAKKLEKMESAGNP

[3] = molecular target: T3, K659E/K754E (Drosophila melanogaster, UniProt Q9W1K4 512-819, K659E;K754E)
T3 sequence: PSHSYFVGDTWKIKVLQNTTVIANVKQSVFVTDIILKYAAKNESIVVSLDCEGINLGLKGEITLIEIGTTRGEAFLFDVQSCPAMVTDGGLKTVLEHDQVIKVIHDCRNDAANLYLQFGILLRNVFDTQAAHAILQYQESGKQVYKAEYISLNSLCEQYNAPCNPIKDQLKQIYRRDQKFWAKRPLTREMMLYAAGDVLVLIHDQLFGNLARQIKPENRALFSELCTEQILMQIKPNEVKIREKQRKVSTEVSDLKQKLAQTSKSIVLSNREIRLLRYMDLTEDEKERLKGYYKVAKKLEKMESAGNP

[4] = molecular target: T4, D617A/R619A/N620A (Drosophila melanogaster, UniProt Q9W1K4 512-819, D617A;R619A;N620A)
T4 sequence: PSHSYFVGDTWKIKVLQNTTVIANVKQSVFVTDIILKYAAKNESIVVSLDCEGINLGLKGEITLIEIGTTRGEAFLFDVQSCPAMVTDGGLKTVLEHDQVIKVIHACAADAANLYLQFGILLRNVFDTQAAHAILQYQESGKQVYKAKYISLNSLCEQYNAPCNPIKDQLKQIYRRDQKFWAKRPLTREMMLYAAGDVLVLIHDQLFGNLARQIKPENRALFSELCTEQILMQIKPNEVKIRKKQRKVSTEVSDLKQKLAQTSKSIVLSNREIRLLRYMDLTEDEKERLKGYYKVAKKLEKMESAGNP

[5] = molecular target: T5, K755A (Drosophila melanogaster, UniProt Q9W1K4 512-819, K755A)
T5 sequence: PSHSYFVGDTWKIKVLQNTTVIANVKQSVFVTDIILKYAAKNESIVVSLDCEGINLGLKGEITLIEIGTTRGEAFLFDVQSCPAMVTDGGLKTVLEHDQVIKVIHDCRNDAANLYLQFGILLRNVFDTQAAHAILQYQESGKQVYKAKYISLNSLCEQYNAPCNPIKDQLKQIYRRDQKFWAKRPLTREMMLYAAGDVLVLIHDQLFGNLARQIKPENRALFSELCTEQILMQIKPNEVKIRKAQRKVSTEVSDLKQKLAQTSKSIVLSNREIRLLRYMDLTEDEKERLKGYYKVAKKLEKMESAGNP

[6] = molecular target: T6, R782A (Drosophila melanogaster, UniProt Q9W1K4 512-819, R782A)
T6 sequence: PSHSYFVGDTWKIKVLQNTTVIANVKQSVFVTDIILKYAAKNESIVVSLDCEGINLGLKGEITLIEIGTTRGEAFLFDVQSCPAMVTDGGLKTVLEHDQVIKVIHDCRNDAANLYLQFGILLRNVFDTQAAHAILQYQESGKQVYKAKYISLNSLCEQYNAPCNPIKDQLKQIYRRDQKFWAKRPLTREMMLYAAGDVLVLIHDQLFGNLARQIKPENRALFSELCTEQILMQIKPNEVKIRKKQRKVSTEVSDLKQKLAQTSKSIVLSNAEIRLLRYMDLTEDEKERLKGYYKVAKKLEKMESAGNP

**Q.** How did the Kd [1] turn out when CUUGAUUGUAUUUUUAAAUUAAUUCUUAAAAACUACAAAUUAAG (structured_RNA) [K10 TLS (FAM)] was run?
**A.** 222 ± 19 nM

**Q.** And the Kd [2]?
**A.** 140 ± 10 nM

**Q.** What about the Kd [3] of the same binder?
**A.** 433 ± 42 nM

**Q.** And the Kd [4]?
**A.** 273 ± 12 nM

**Q.** And the Kd [5]?
**A.** 131 ± 5 nM

**Q.** And the Kd [6]?
**A.** 284 ± 13 nM
